Assay results: patent US20240140995A1

Experiments:
[1] = biological target: E. coli ColE-7 (E. coli) (UniProt Q47112); test: SPR Biacore T200, 37 C, single cycle kinetics; biotinylated immunity protein on streptavidin sensor, colicin analyte 1.1-90 nM
[2] = biological target: E. coli ColE-7 (E. coli) (UniProt Q47112); test: SPR Biacore T200, 37 C, single cycle kinetics
[3] = biological target: GthCol (Geobacillus thermoglucosidasius C-terminal Colicin DNase domain, C36A, H78A, engineered) (Geobacillus thermoglucosidasius); test: SPR Biacore T200, 37 C, single cycle kinetics
[4] = biological target: GthCol (Geobacillus thermoglucosidasius C-terminal Colicin DNase domain, C36A, H78A, engineered) (Geobacillus thermoglucosidasius); test: SPR Biacore T200, 37 C, single cycle kinetics; […]

“GthIM (Geobacillus thermoglucosidasius immunity protein, C18A, engineered), singly biotinylated” gave an MR (Molar Ratio, binding stoichiometry) [1] of 1.2, a complex half-life t/2-diss [2] of under 1 min and a fold less affinity than GthIM/GthCol [2] of 65000 fold. The fold stronger than the IM7/ColE7 interaction [3] was over 30 fold, the GthCol concentration at which GthIM saturation is achieved [4] was 3 nM and the Kd [4] was under 0.2 pM. The MR (Molar Ratio, binding stoichiometry) [4] was 1.1, the koff [4] was under 1e-05 s⁻¹ and the kon [4] was over 5e+07 M⁻¹ s⁻¹.
